This is an account of results in paper PMC11758950.

The assay addresses T1, ELFN1-myc (mouse) (UniProt Q8C8T7).
T1 sequence: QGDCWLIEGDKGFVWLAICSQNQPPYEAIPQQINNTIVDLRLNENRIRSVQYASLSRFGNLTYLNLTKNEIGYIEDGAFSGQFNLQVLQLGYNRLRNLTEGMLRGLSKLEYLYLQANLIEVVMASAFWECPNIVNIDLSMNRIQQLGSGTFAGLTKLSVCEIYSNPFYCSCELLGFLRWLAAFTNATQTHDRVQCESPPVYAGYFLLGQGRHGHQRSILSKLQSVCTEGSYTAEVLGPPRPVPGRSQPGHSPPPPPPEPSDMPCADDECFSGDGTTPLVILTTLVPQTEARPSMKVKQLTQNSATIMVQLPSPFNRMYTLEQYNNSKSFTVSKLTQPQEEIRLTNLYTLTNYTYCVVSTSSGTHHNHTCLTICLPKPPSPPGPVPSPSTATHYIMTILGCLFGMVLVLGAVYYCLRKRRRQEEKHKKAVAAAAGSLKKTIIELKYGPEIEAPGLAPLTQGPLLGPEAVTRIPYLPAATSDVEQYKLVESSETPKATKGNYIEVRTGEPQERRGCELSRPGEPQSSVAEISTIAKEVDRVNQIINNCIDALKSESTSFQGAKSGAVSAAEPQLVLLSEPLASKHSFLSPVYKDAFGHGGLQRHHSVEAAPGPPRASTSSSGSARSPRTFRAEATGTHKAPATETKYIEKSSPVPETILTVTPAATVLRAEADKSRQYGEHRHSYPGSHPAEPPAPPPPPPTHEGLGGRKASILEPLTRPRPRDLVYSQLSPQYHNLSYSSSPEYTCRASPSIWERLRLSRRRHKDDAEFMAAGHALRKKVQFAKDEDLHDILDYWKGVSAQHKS

B1: ELFN1Δ452-Venus (domain or fragment)
chain: QGDCWLIEGDKGFVWLAICSQNQPPYEAIPQQINNTIVDLRLNENRIRSVQYASLSRFGNLTYLNLTKNEIGYIEDGAFSGQFNLQVLQLGYNRLRNLTEGMLRGLSKLEYLYLQANLIEVVMASAFWECPNIVNIDLSMNRIQQLGSGTFAGLTKLSVCEIYSNPFYCSCELLGFLRWLAAFTNATQTHDRVQCESPPVYAGYFLLGQGRHGHQRSILSKLQSVCTEGSYTAEVLGPPRPVPGRSQPGHSPPPPPPEPSDMPCADDECFSGDGTTPLVILTTLVPQTEARPSMKVKQLTQNSATIMVQLPSPFNRMYTLEQYNNSKSFTVSKLTQPQEEIRLTNLYTLTNYTYCVVSTSSGTHHNHTCLTICLPKPPSPPGPVPSPSTATHYIMTILGCLFGMVLVLGAVYYCLRKRRRQEEKHKK
The molecule B1 had a cell membrane enrichment of ELFN1Δ452-Venus (membrane against proximal cytosolic pixel intensity) with co-expression of ELFN1-myc (median 92.50% under control conditions) of 129% and a percentage of cells with membrane enrichment of ELFN1Δ452-Venus when co-expressed with ELFN1-myc (0.000 without ELFN1-myc); live-cell confocal microscopy, HEK293 of 33.4%.
